Tests used:
Test in all cases: cell-based or functional assay
[1] = target: human HA LFA-1 stably expressed on K562 cells (K562-HA LFA-1) (human) (UniProt P20701)
[2] = target: human WT LFA-1 (alpha L beta 2) on cells, activation state not specified at the place cited (human) (UniProt P20701)
[3] = target: human LFA-1 on cells in the unstimulated, low-affinity conformation (human) (UniProt P20701)
human LFA-1 on cells in the unstimulated, low-affinity conformation (human), sequence (P20701 26-1170, chain 1 of 2): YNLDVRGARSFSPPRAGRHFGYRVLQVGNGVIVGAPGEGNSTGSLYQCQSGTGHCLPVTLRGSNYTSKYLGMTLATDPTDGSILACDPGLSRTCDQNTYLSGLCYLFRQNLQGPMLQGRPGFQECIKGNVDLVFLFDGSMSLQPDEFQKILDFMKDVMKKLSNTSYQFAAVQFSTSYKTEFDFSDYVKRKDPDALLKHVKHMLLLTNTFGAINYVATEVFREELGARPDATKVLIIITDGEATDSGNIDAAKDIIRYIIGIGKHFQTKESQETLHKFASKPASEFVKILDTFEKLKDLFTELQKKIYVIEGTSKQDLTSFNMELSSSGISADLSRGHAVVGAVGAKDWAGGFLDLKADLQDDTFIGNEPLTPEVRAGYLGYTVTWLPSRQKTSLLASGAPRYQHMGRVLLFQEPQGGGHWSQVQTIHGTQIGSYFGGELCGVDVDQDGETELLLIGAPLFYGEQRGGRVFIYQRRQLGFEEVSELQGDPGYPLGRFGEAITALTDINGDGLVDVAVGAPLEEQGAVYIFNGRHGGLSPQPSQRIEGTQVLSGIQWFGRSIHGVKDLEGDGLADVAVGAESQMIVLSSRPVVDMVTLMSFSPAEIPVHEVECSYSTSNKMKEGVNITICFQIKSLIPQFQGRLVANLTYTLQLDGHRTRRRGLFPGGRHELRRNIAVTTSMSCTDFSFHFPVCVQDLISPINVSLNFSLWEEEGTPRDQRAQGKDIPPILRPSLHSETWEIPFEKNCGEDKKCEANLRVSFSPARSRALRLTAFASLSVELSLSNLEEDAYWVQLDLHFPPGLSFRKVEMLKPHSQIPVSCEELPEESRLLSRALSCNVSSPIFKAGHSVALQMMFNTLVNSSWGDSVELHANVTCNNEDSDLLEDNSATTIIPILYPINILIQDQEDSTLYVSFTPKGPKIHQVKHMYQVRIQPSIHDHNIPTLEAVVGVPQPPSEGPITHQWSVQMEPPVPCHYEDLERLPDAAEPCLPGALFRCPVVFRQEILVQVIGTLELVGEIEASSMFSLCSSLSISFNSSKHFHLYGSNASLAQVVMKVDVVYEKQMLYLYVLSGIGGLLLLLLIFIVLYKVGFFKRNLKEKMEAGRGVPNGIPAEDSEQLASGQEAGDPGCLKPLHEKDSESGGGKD
human LFA-1 on cells in the unstimulated, low-affinity conformation (human), sequence (P05107 23-769, chain 2 of 2, further chain): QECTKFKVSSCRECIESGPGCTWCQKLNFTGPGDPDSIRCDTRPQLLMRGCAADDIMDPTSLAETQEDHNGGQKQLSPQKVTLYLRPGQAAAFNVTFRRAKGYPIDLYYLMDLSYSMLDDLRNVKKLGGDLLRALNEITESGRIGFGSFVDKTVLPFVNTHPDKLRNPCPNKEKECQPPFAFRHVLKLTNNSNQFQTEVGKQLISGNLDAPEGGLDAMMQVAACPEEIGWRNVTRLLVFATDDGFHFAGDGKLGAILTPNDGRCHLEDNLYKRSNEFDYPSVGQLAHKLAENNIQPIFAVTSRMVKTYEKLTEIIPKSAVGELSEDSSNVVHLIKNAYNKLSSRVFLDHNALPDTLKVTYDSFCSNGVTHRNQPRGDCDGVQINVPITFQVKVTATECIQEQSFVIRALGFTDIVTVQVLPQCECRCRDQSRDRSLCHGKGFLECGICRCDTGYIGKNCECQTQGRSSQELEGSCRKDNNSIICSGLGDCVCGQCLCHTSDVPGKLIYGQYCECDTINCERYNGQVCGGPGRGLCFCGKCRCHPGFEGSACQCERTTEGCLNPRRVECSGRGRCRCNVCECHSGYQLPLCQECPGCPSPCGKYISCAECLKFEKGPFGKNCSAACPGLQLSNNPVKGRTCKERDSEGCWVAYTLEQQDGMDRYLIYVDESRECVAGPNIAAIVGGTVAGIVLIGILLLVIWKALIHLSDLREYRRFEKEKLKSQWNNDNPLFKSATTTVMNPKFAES

human WT LFA-1 (alpha L beta 2) on cells, activation state not specified at the place cited (human), sequence (P20701 26-1170, chain 1 of 2): as the sequence (P20701 26-1170, chain 1 of 2) above
human WT LFA-1 (alpha L beta 2) on cells, activation state not specified at the place cited (human), sequence (P05107 23-769, chain 2 of 2, further chain): as the sequence (P05107 23-769, chain 2 of 2, further chain) above

Cy3+ K562 cells/Total K562 cells, % (in vivo Cy3-siRNA delivery, SCID mouse lung, flow cytometry) [1] [%]	Cy3+ K562 cells/Total K562 cells, % (in vivo Cy3-siRNA delivery, SCID mouse lung, flow cytometry) [2] [%]	Cy3-siRNA delivery to PBMC subsets (flow cytometry), Cy3+ T and B lymphocytes [3] [%]	Substance
4.2	4.7	–	ML39-protamine fusion protein (control scFv-PF fusion protein that recognizes human ErbB2)
87.4	88.5	–	TS1/22-protamine fusion protein (scFv TS1/22 fused to human protamine residues 8-29, His6 tag) (from UniProt P04553 8-29)
88.1	23.3	1 to 2	AL-57-protamine fusion protein (scFv AL-57 fused to truncated human protamine, residues 8-29, His6 tag) (from UniProt P04553 8-29)
